Data as given in PMC9352680, “A comprehensive thermodynamic model for RNA binding by the Saccharomyces cerevisiae Pumilio protein PUF4”.

Molecular target: T1, PUF4 RNA-binding domain (Saccharomyces cerevisiae, UniProt P25339 537-888)
T1 sequence: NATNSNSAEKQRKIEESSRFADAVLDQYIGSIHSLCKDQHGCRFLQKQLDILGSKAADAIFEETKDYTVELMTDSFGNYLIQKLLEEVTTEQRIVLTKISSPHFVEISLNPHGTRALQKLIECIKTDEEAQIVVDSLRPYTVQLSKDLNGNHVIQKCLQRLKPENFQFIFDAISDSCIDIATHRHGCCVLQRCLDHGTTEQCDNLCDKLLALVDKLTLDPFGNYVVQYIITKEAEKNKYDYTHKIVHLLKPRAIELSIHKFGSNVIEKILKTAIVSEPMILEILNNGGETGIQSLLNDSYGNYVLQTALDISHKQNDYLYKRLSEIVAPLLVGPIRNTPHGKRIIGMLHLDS
Assay: Mg; RNA-MaP; 20 mM Na-HEPES pH 7.4, 30 mM KOAc, 0.75 mM MgCl2, 0.1% Tween-20, 5% glycerol, 0.1 mg/mL BSA, 2 mM DTT; 25 C; 0.0125-409.6 nM protein
Details: tags: N-His6-TEV cleaved; C-SNAP kept, Cy3B-labelled; label: tethered on chip by stalled RNA polymerase

Binder | Kd [nM]
UCUCUUUAUAUAUUAUUACCUCUCUU (ssRNA) [Id_ii_S1_P5E.3_K5.2_C5.2_[C-2T]_[T-1A]_H5.2_A5.1_F5.1_T5.2_[T11C]_[A12C]] | 14.1
UCUCUUUAUAUAUUAUUACUUCUCUU (ssRNA) [Id_ii_S1_P5E.3_K5.2_C5.2_[C-2T]_[T-1A]_H5.2_A5.1_F5.1_T5.2_[T11C]_[A12T]] | 13.3
UCUCUUUAUAUAUUAUUAACUCUCUU (ssRNA) [Id_ii_S1_P5E.3_K5.2_C5.2_[C-2T]_[T-1A]_H5.2_A5.1_F5.1_T5.2_[T11A]_[A12C]] | 15.9
UCUCUUUAUAUAUUAUUAAUUCUCUU (ssRNA) [Id_ii_S1_P5E.3_K5.2_C5.2_[C-2T]_[T-1A]_H5.2_A5.1_F5.1_T5.2_[T11A]_[A12T]] | 21
UCUCUUUAUAUAUUAUUAAAUCUCUU (ssRNA) [Id_ii_S1_P5E.3_K5.2_C5.2_[C-2T]_[T-1A]_H5.2_A5.1_F5.1_T5.2_[T11A]] | 25.4
UCUCUUUAUAUAUUAUUAUCUCUCUU (ssRNA) [Id_ii_S1_P5E.3_K5.2_C5.2_[C-2T]_[T-1A]_H5.2_A5.1_F5.1_T5.2_[A12C]] | 21
UCUCUUUAUAUAUUAUUAUUUCUCUU (ssRNA) [Id_ii_S1_P5E.3_K5.2_C5.2_[C-2T]_[T-1A]_H5.2_A5.1_F5.1_T5.2_[A12T]] | 17.6
UCUCUUUUUAUAUUAUUAGCUCUCUU (ssRNA) [Id_ii_S1_P5E.3_K5.2_C5.2_[C-2T]_H5.2_A5.1_F5.1_T5.2_[T11G]_[A12C]] | 160
UCUCUUUUUAUAUUAUUACGUCUCUU (ssRNA) [Id_ii_S1_P5E.3_K5.2_C5.2_[C-2T]_H5.2_A5.1_F5.1_T5.2_[T11C]_[A12G]] | 434
UCUCUUUUUAUAUUAUUACUUCUCUU (ssRNA) [Id_ii_S1_P5E.3_K5.2_C5.2_[C-2T]_H5.2_A5.1_F5.1_T5.2_[T11C]_[A12T]] | 414
UCUCUUUGUAUUGUAUCUCUU (ssRNA) [Ib_S1_P4E.1_K4.1_C4.1_H4.1_A4.1_[A6T]_[T7G]_F4.1_T4.1] | 7.79
UCUCUUUUUAUAUUAUUACAUCUCUU (ssRNA) [Id_ii_S1_P5E.3_K5.2_C5.2_[C-2T]_H5.2_A5.1_F5.1_T5.2_[T11C]] | 497
UCUCUUUUUAUAUUAUUAACUCUCUU (ssRNA) [Id_ii_S1_P5E.3_K5.2_C5.2_[C-2T]_H5.2_A5.1_F5.1_T5.2_[T11A]_[A12C]] | 524
UCUCUUUUUAUAUUAUUAAUUCUCUU (ssRNA) [Id_ii_S1_P5E.3_K5.2_C5.2_[C-2T]_H5.2_A5.1_F5.1_T5.2_[T11A]_[A12T]] | 457
UCUCUUUUUAUAUUAUUAUCUCUCUU (ssRNA) [Id_ii_S1_P5E.3_K5.2_C5.2_[C-2T]_H5.2_A5.1_F5.1_T5.2_[A12C]] | 550
UCUCUUUUUAUAUUAUUAUUUCUCUU (ssRNA) [Id_ii_S1_P5E.3_K5.2_C5.2_[C-2T]_H5.2_A5.1_F5.1_T5.2_[A12T]] | 181
UCUCUUACUAUAUUAUUACCUCUCUU (ssRNA) [Id_ii_S1_P5E.3_K5.2_C5.2_[C-2A]_[T-1C]_H5.2_A5.1_F5.1_T5.2_[T11C]_[A12C]] | 520
UCUCUUACUAUAUUAUUACUUCUCUU (ssRNA) [Id_ii_S1_P5E.3_K5.2_C5.2_[C-2A]_[T-1C]_H5.2_A5.1_F5.1_T5.2_[T11C]_[A12T]] | 486
UCUCUUACUAUAUUAUUACAUCUCUU (ssRNA) [Id_ii_S1_P5E.3_K5.2_C5.2_[C-2A]_[T-1C]_H5.2_A5.1_F5.1_T5.2_[T11C]] | 424
UCUCUUACUAUAUUAUUAACUCUCUU (ssRNA) [Id_ii_S1_P5E.3_K5.2_C5.2_[C-2A]_[T-1C]_H5.2_A5.1_F5.1_T5.2_[T11A]_[A12C]] | 706
UCUCUUACUAUAUUAUUAAUUCUCUU (ssRNA) [Id_ii_S1_P5E.3_K5.2_C5.2_[C-2A]_[T-1C]_H5.2_A5.1_F5.1_T5.2_[T11A]_[A12T]] | 453

Binder | Kd [nM]
UCUCUUUGUAUUCUAUCUCUU (ssRNA) [Ib_S1_P4E.1_K4.1_C4.1_H4.1_A4.1_[A6T]_[T7C]_F4.1_T4.1] | 2.85
UCUCUUACUAUAUUAUUAAAUCUCUU (ssRNA) [Id_ii_S1_P5E.3_K5.2_C5.2_[C-2A]_[T-1C]_H5.2_A5.1_F5.1_T5.2_[T11A]] | 626
UCUCUUACUAUAUUAUUAUCUCUCUU (ssRNA) [Id_ii_S1_P5E.3_K5.2_C5.2_[C-2A]_[T-1C]_H5.2_A5.1_F5.1_T5.2_[A12C]] | 536
UCUCUUAAUAUAUUAUUACCUCUCUU (ssRNA) [Id_ii_S1_P5E.3_K5.2_C5.2_[C-2A]_[T-1A]_H5.2_A5.1_F5.1_T5.2_[T11C]_[A12C]] | 668
UCUCUUAAUAUAUUAUUACUUCUCUU (ssRNA) [Id_ii_S1_P5E.3_K5.2_C5.2_[C-2A]_[T-1A]_H5.2_A5.1_F5.1_T5.2_[T11C]_[A12T]] | 552
UCUCUUAAUAUAUUAUUACAUCUCUU (ssRNA) [Id_ii_S1_P5E.3_K5.2_C5.2_[C-2A]_[T-1A]_H5.2_A5.1_F5.1_T5.2_[T11C]] | 601
UCUCUUAUUAUAUUAUUAGCUCUCUU (ssRNA) [Id_ii_S1_P5E.3_K5.2_C5.2_[C-2A]_H5.2_A5.1_F5.1_T5.2_[T11G]_[A12C]] | 208
UCUCUUAUUAUAUUAUUACGUCUCUU (ssRNA) [Id_ii_S1_P5E.3_K5.2_C5.2_[C-2A]_H5.2_A5.1_F5.1_T5.2_[T11C]_[A12G]] | 126
UCUCUUAUUAUAUUAUUACCUCUCUU (ssRNA) [Id_ii_S1_P5E.3_K5.2_C5.2_[C-2A]_H5.2_A5.1_F5.1_T5.2_[T11C]_[A12C]] | 203
UCUCUUAUUAUAUUAUUACUUCUCUU (ssRNA) [Id_ii_S1_P5E.3_K5.2_C5.2_[C-2A]_H5.2_A5.1_F5.1_T5.2_[T11C]_[A12T]] | 175
UCUCUUAUUAUAUUAUUACAUCUCUU (ssRNA) [Id_ii_S1_P5E.3_K5.2_C5.2_[C-2A]_H5.2_A5.1_F5.1_T5.2_[T11C]] | 128
UCUCUUUGUAUUAUAUCUCUU (ssRNA) [Ib_S1_P4E.1_K4.1_C4.1_H4.1_A4.1_[A6T]_[T7A]_F4.1_T4.1] | 2.13
UCUCUUAUUAUAUUAUUAACUCUCUU (ssRNA) [Id_ii_S1_P5E.3_K5.2_C5.2_[C-2A]_H5.2_A5.1_F5.1_T5.2_[T11A]_[A12C]] | 159
UCUCUUAUUAUAUUAUUAUCUCUCUU (ssRNA) [Id_ii_S1_P5E.3_K5.2_C5.2_[C-2A]_H5.2_A5.1_F5.1_T5.2_[A12C]] | 63.5
UCUCUUAUUAUAUUAUUAUUUCUCUU (ssRNA) [Id_ii_S1_P5E.3_K5.2_C5.2_[C-2A]_H5.2_A5.1_F5.1_T5.2_[A12T]] | 160
UCUCUUCGUAUAUUAUUAGCUCUCUU (ssRNA) [Id_ii_S1_P5E.3_K5.2_C5.2_[T-1G]_H5.2_A5.1_F5.1_T5.2_[T11G]_[A12C]] | 25.6
UCUCUUCGUAUAUUAUUAGUUCUCUU (ssRNA) [Id_ii_S1_P5E.3_K5.2_C5.2_[T-1G]_H5.2_A5.1_F5.1_T5.2_[T11G]_[A12T]] | 25.4
UCUCUUCGUAUAUUAUUAACUCUCUU (ssRNA) [Id_ii_S1_P5E.3_K5.2_C5.2_[T-1G]_H5.2_A5.1_F5.1_T5.2_[T11A]_[A12C]] | 27.7
UCUCUUCGUAUAUUAUUAAUUCUCUU (ssRNA) [Id_ii_S1_P5E.3_K5.2_C5.2_[T-1G]_H5.2_A5.1_F5.1_T5.2_[T11A]_[A12T]] | 26.5
UCUCUUCGUAUAUUAUUAAAUCUCUU (ssRNA) [Id_ii_S1_P5E.3_K5.2_C5.2_[T-1G]_H5.2_A5.1_F5.1_T5.2_[T11A]] | 38.8
UCUCUUCGUAUAUUAUUAUCUCUCUU (ssRNA) [Id_ii_S1_P5E.3_K5.2_C5.2_[T-1G]_H5.2_A5.1_F5.1_T5.2_[A12C]] | 18.4

Binder | Kd [nM]
UCUCUUCGUAUAUUAUUAUUUCUCUU (ssRNA) [Id_ii_S1_P5E.3_K5.2_C5.2_[T-1G]_H5.2_A5.1_F5.1_T5.2_[A12T]] | 26.6
UCUCUUUGUAUUACCAUCUCUU (ssRNA) [Ib_S1_P5E.1_K5.1_C5.1_H5.1_A5.1_F5.1_[T8C]_[T9C]_T5.1] | 287
UCUCUUCCUAUAUUAUUACGUCUCUU (ssRNA) [Id_ii_S1_P5E.3_K5.2_C5.2_[T-1C]_H5.2_A5.1_F5.1_T5.2_[T11C]_[A12G]] | 746
UCUCUUCCUAUAUUAUUACUUCUCUU (ssRNA) [Id_ii_S1_P5E.3_K5.2_C5.2_[T-1C]_H5.2_A5.1_F5.1_T5.2_[T11C]_[A12T]] | 456
UCUCUUCCUAUAUUAUUACAUCUCUU (ssRNA) [Id_ii_S1_P5E.3_K5.2_C5.2_[T-1C]_H5.2_A5.1_F5.1_T5.2_[T11C]] | 592
UCUCUUCCUAUAUUAUUAAGUCUCUU (ssRNA) [Id_ii_S1_P5E.3_K5.2_C5.2_[T-1C]_H5.2_A5.1_F5.1_T5.2_[T11A]_[A12G]] | 971
UCUCUUCCUAUAUUAUUAACUCUCUU (ssRNA) [Id_ii_S1_P5E.3_K5.2_C5.2_[T-1C]_H5.2_A5.1_F5.1_T5.2_[T11A]_[A12C]] | 620
UCUCUUCCUAUAUUAUUAAUUCUCUU (ssRNA) [Id_ii_S1_P5E.3_K5.2_C5.2_[T-1C]_H5.2_A5.1_F5.1_T5.2_[T11A]_[A12T]] | 779
UCUCUUCCUAUAUUAUUAAAUCUCUU (ssRNA) [Id_ii_S1_P5E.3_K5.2_C5.2_[T-1C]_H5.2_A5.1_F5.1_T5.2_[T11A]] | 683
UCUCUUCCUAUAUUAUUAUCUCUCUU (ssRNA) [Id_ii_S1_P5E.3_K5.2_C5.2_[T-1C]_H5.2_A5.1_F5.1_T5.2_[A12C]] | 532
UCUCUUCCUAUAUUAUUAUUUCUCUU (ssRNA) [Id_ii_S1_P5E.3_K5.2_C5.2_[T-1C]_H5.2_A5.1_F5.1_T5.2_[A12T]] | 517
UCUCUUCAUAUAUUAUUAGGUCUCUU (ssRNA) [Id_ii_S1_P5E.3_K5.2_C5.2_[T-1A]_H5.2_A5.1_F5.1_T5.2_[T11G]_[A12G]] | 488
UCUCUUUGUAUUAGUGUCUCUU (ssRNA) [Ib_S1_P5E.1_K5.1_C5.1_H5.1_A5.1_F5.1_[T8G]_[A10G]_T5.1] | 386
UCUCUUCAUAUAUUAUUAGCUCUCUU (ssRNA) [Id_ii_S1_P5E.3_K5.2_C5.2_[T-1A]_H5.2_A5.1_F5.1_T5.2_[T11G]_[A12C]] | 157
UCUCUUCAUAUAUUAUUAGUUCUCUU (ssRNA) [Id_ii_S1_P5E.3_K5.2_C5.2_[T-1A]_H5.2_A5.1_F5.1_T5.2_[T11G]_[A12T]] | 141
UCUCUUCAUAUAUUAUUACGUCUCUU (ssRNA) [Id_ii_S1_P5E.3_K5.2_C5.2_[T-1A]_H5.2_A5.1_F5.1_T5.2_[T11C]_[A12G]] | 440
UCUCUUCAUAUAUUAUUACCUCUCUU (ssRNA) [Id_ii_S1_P5E.3_K5.2_C5.2_[T-1A]_H5.2_A5.1_F5.1_T5.2_[T11C]_[A12C]] | 278
UCUCUUCAUAUAUUAUUACUUCUCUU (ssRNA) [Id_ii_S1_P5E.3_K5.2_C5.2_[T-1A]_H5.2_A5.1_F5.1_T5.2_[T11C]_[A12T]] | 321
UCUCUUCAUAUAUUAUUAACUCUCUU (ssRNA) [Id_ii_S1_P5E.3_K5.2_C5.2_[T-1A]_H5.2_A5.1_F5.1_T5.2_[T11A]_[A12C]] | 218
UCUCUUCAUAUAUUAUUAAUUCUCUU (ssRNA) [Id_ii_S1_P5E.3_K5.2_C5.2_[T-1A]_H5.2_A5.1_F5.1_T5.2_[T11A]_[A12T]] | 424
